Data set [1] concerns the target T1, FUS (FLAGHA-FUS-His6) (human, UniProt P35637 1-526). Kind of data set: EMSA.
The target of data set [2] is T1, FUS (FLAGHA-FUS-His6). Put plainly: EMSA. The source holds these as a separate data set. On the technique in general: A gel shift assay detects complexes by their altered migration in electrophoresis.

T1 sequence (P35637 whole entry): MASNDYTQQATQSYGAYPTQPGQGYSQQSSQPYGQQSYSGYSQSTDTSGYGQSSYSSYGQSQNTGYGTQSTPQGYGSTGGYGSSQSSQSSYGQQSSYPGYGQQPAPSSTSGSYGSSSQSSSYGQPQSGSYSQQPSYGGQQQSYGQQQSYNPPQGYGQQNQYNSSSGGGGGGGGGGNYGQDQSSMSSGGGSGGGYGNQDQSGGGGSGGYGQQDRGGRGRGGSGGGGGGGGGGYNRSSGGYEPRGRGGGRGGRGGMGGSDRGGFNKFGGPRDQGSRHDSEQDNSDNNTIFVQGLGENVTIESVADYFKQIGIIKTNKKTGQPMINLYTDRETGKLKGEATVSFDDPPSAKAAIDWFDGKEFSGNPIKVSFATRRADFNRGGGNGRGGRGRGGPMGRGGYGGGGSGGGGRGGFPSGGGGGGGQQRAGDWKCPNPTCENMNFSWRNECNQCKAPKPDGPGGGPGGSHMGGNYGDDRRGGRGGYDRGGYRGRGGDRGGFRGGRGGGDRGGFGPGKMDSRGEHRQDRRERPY

In the case of GAUUAAGAUAUAACUACUCUAUCUUCUGAACAUGACA (structured_RNA) [SON_BA (reconstituted right-left stem)], the binding result with FUS (FLAGHA-FUS-His6) [1] is “binds”.
AUUAUUAUUAUUAUUAUUAUUAUUAUUAUUAUUAUU (structured_RNA) [AUU trinucleotide repeat (x12)] had a Kd with FUS (FLAGHA-FUS-His6) [1] of 198 nM.
With GGUGGUGGUGGUGGUGGUGGUGGUGGUGGUGGUGGU (ssRNA) [GGU trinucleotide repeat (x12)], the binding signal in the data set with FUS (FLAGHA-FUS-His6) [2] is > 15 fold lower Kd than SON_AB (at least; as worded in text).
In turn, GAUUUAUCUUUAACUACUCAAGAUACUGAACAUGACA (structured_RNA) [SON_AB (natural left-right stem)] yielded a Kd in the data set with FUS (FLAGHA-FUS-His6) [1] of 148 nM.
For the molecule GAUUAAGAUAUAACUACUCAAGAUACUGAACAUGACA (ssRNA) [SON_BB (non-complementary right-right stem)], the binding result with FUS (FLAGHA-FUS-His6) [1] was “no binding”.

By Kd is commonly meant the equilibrium constant for the complex coming apart. A low value points to tighter binding.

The record behind these values is publication PMC3230689.
